According to doi:10.1101/2022.07.09.499445 (bioRxiv, 2022):

Experiments:
[1] = biological target: QacA WT (tagged with GFP) (Staphylococcus aureus, UniProt P0A0J9); test: immunostaining of cells or tissue
[2] = biological target: ICab A4, displayed on the yeast cell surface (camel); test: flow cytometry on cells
[3] = biological target: ICab B7, displayed on the yeast cell surface (camel); test: flow cytometry on cells
five unique clones = test: flow cytometry on cells

| Binder | binding result [1] | Kd [2] [nM] | Kd [3] [nM] | population shift (five unique clones) [%] |
| --- | --- | --- | --- | --- |
| ICab B7, purified (VHH) VHH: QVQLQESGGGSVQAGGSLRLSCAASGYTNSRKCMGWFRQIPGKEREGVAAIYGFGRGLILYADSVKGRFTISQDNAKNTVYLQMNSLKPEDTAMYYCAADSPGSCLSRSGYNYWGQGTQVTVSS | binds | – | – | – |
| QacA_(D411N)GFP (natural protein) MISFFTKTTDMMTSKKRWTALVVLAVSLFVVTMDMTILIMALPELVRELEPSGTQQLWIVDIYSLVLAGFIIPLSAFADKWGRKKALLTGFALFGLVSLAIFFAESAEFVIAIRFLLGIAGALIMPTTLSMIRVIFENPKERATALAVWSIASSIGAVFGPIIGGALLEQFSWHSAFLINVPFAIIAVVAGLFLLPESKLSKEKSHSWDIPSTILSIAGMIGLVWSIKEFSKEGLADIIPWVVIVLAITMIVIFVKRNLSSSDPMLDVRLFKKRSFSAGTIAAFMTMFAMASVLLLASQWLQVVEELSPFKAGLYLLPMAIGDMVFAPIAPGLAARFGPKIVLPSGIGIAAIGMFIMYFFGHPLSYSTMALALILVGAGMASLAVASALIMLETPTSKAGNAAAVEESMYNLGNVFGVAVLGSLSSMLYRVFLDISSFSSKGIVGDLAHVAEESVVGAVEVAKATGIKQLANEAVTSFNDAFVATALVGGIIMIIISIVVYLLIPKSLDITKQK | – | 65 | 100 | 65 to 97 |
| ICab A4, purified (VHH) VHH: QVQLQESGGGSVQTGGSLRLSCAASGYRYSDNCVGWFRQAPGREREAVATYNSGSSTWYADSVKGRFTISQDSAKSTVYLQMNNLKPEDTAMYYCAGRNRLGSYCYMTGDFAYWGQGTQVTVSS | binds | – | – | – |
